Experimental findings from publication PMC8124269, “Antiviral Properties of the NSAID Drug Naproxen Targeting the Nucleoprotein of SARS-CoV-2 Coronavirus” are described below.

In this series the target is SARS-CoV-2 N NTD (batch 2, monomer) (SARS-CoV-2, UniProt P0DTC9 50-173). The series can be described thus: DLS; Anisotropy: 10 mM Tris pH 8.0, 50 mM NaCl, 2 mM beta-mercaptoethanol, thermostated (temperature not stated); DLS: 20 mM Tris pH 7.9, 100 mM NaCl, 20 C. The following applies: protein: recombinant; tags: N-terminal His6 (pET-28a); single strand.

For ATATATATCTATGTCCATATATATATAAAACACAGCGTGTGTGTGTAA (ssDNA) [48-mer ssDNA], the binding result is reported as “binds”.
